Publication PMC10485164, “Sequence-specific targeting of Caenorhabditis elegans C-Ala to the D-loop of tRNAAla”
Substitutions are numbered along the chain they refer to.

Assays:
Ce-C-Alac K938A = molecular target: T1, Ce-C-Alac K938A (Caenorhabditis elegans, UniProt O01541 757-968, K938A); test: EMSA; 5 mM Mg2+; EMSA: 20 mM Hepes pH 7.5, 20 mM KCl, 5 mM MgCl2, 2 mM DTT, 10 min on ice, 0.1 uM ligand; 5% native PAGE in 0.5x TBE at 4 C; protein 0.125-32 uM; conditions: protein: recombinant; tags: His6 (C-terminal, pET21b); label: 5'-32P; tRNA cloverleaf
T1 sequence: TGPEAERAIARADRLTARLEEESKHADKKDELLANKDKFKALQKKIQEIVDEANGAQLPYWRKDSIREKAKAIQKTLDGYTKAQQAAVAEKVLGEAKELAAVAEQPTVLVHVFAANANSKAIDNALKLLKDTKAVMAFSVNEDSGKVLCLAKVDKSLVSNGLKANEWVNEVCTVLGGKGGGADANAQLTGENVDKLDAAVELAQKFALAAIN

Ce-C-Alac K934A = molecular target: T2, Ce-C-Alac K934A (Caenorhabditis elegans, UniProt O01541 757-968, K934A); test: as above; conditions: protein: recombinant; tags: His6 (C-terminal, pET21b); label: 5'-32P; tRNA cloverleaf
T2 sequence: T1 sequence with K178A, A182K

B1: CetRNAnAla (structured_RNA)
RNA: GGGGGUAUAGCUCAGUGGUAGAGCGCUCCCUUAGCAUGGGAGAGGGCUGGGGUUCAAUUCCCCAUACCUCCACCA
Ce-C-Alac K938A
  binding signal: 3 fold lower affinity than WT Ce-C-Alac
Ce-C-Alac K934A
  binding signal: 11 fold lower affinity than WT Ce-C-Alac
